Patent US20040214256

T1: peptide 3s, Ac-Ser-Gly-PyA-Lys-Ala-Phe-Ala-pNF-Gly-Lys NH2
T1 sequence: SGXKAFAXGK

T2: Compound 2s, Ac-Arg-Pro-Lys-Pro-Gln-Gln-PyA-pNF-Gly-Leu-Met-NH2
T2 sequence: RPKPQQXXGLM

T3: Compound 1s, Ac-Ile-Ile-PyA-pNF-Asn-Thr-Pro-Glu-His-Val-Val-Pro-Tyr-Gly-Leu-Gly-Ser-COOH
T3 sequence: IIXXNTPEHVVPYGLGS

T4: Compound 1s, Ac-Ile-Ile-PyA-pNF-Asn-Thr-Pro-Glu-His-Val-Val-Pro-Tyr-Gly-Leu-Gly-Ser-COOH
T4 chain: IIXXNTPEHVVPYGLGS

T5: peptide 3s, Ac-Ser-Gly-PyA-Lys-Ala-Phe-Ala-pNF-Gly-Lys NH2
T5 chain: SGXKAFAXGK


Assays:
[1] = test system: T1, peptide 3s, Ac-Ser-Gly-PyA-Lys-Ala-Phe-Ala-pNF-Gly-Lys NH2
[2] = test system: T2, Compound 2s, Ac-Arg-Pro-Lys-Pro-Gln-Gln-PyA-pNF-Gly-Leu-Met-NH2
[3] = test system: T3, Compound 1s, Ac-Ile-Ile-PyA-pNF-Asn-Thr-Pro-Glu-His-Val-Val-Pro-Tyr-Gly-Leu-Gly-Ser-COOH
[4] = target: T4, Compound 1s, …
[5] = target: T5, peptide 3s, …

Molecule	cleavage by HPLC after 2 h at 37° C. [1]	cleavage by HPLC after 2 h at 37° C. [2]	cleavage by HPLC after 2 h at 37° C. [3]	Km (fluorimetric cleavage assay, ENZFITTER) [4]	cleavage products by HPLC [4]	cleavage products by HPLC [5]
angiotensin-converting enzyme (ACE)	no cleavage is observed by HPLC after incubation for 2 h at 37 °C	no cleavage is observed by HPLC after incubation for 2 h at 37 °C	no cleavage is observed by HPLC after incubation for 2 h at 37 °C	–	–	–
neprilysin (NEP)	no cleavage is observed by HPLC after incubation for 2 h at 37 °C	no cleavage is observed by HPLC after incubation for 2 h at 37 °C	no cleavage is observed by HPLC after incubation for 2 h at 37 °C	–	–	–
endothelin-converting enzyme (ECE) (protein) MMSTYKRATLDEEDLVDSLSEGDAYPNGLQVNFHSPRSGQRCWAARTQVEKRLVVLVVLLAAGLVACLAALGIQYQTRSPSVCLSEACVSVTSSILSSMDPTVDPCHDFFSYACGGWIKANPVPDGHSRWGTFSNLWEHNQAIIKHLLENSTASVSEAERKAQVYYRACMNETRIEELRAKPLMELIERLGGWNITGPWAKDNFQDTLQVVTAHYRTSPFFSVYVSADSKNSNSNVIQVDQSGLGLPSRDYYLNKTENEKVLTGYLNYMVQLGKLLGGGDEEAIRPQMQQILDFETALANITIPQEKRRDEELIYHKVTAAELQTLAPAINWLPFLNTIFYPVEINESEPIVVYDKEYLEQISTLINTTDRCLLNNYMIWNLVRKTSSFLDQRFQDADEKFMEVMYGTKKTCLPRWKFCVSDTENNLGFALGPMFVKATFAEDSKSIATEIILEIKKAFEESLSTLKWMDEETRKSAKEKADAIYNMIGYPNFIMDPKELDKVFNDYTAVPDLYFENAMRFFNFSWRVTADQLRKAPNRDQWSMTPPMVNAYYSPTKNEIVFPAGILQAPFYTRSSPKALNFGGIGVVVGHELTHAFDDQGREYDKDGNLRPWWKNSSVEAFKRQTECMVEQYSNYSVNGEPVNGRHTLGENIADNGGLKAAYRAYQNWVKKNGAEHSLPTLGLTNNQLFFLGFAQVWCSVRTPESSHEGLITDPHSPSRFRVIGSLSNSKEFSEHFRCPPGSPMNPPHKCEVW	–	–	–	1s, Km=22.1±0.9 µM	In all cases, a single cleavage site at the L.PyA-Lp.NF dipeptide was observed, generating only two metabolites	produce only two metabolites, as shown by analysis of the reaction by HPLC, corresponding to the single cleavage at the PyA-pNF peptide bond
